For data set [1], the target named is T1, GST-MYB47 (Arabidopsis thaliana, UniProt Q6R0C2 1-267).
T1 sequence: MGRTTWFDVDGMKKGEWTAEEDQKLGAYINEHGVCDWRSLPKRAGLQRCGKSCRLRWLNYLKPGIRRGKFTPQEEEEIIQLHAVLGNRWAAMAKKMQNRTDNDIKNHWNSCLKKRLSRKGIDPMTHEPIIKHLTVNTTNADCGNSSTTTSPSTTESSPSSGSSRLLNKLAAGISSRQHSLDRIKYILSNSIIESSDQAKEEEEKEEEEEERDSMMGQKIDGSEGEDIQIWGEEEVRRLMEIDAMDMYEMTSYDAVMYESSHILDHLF
In words: EMSA; 5 mM Mg2+; 10 mM Tris-HCl pH 7.5, 50 mM KCl, 1 mM DTT, 2.5% glycerol, 5 mM MgCl2, 0.1% IGEPAL CA-630, 0.05 ug/uL poly(dI-dC); 500 ng protein, probe 5 uM; competitor 20 min then probe 30 min at room temperature. As to conditions: protein: recombinant; tags: N-terminal GST (pDEST15); label: 5' biotin on strand 1 as probe; blunt.

Data set [2] has as its target T2, GST-MYB95 (Arabidopsis thaliana, UniProt Q7DSY5 1-271).
T2 sequence: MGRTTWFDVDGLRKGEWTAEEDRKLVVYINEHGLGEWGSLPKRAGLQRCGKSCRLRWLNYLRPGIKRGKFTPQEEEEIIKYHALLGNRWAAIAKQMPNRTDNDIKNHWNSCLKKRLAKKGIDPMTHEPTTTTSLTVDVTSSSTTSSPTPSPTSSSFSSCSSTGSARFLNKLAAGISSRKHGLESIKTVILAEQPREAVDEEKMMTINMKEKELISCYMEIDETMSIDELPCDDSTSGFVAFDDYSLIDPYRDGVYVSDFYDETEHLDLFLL
Described as above. To be noted: protein: recombinant; tags: N-terminal GST (pDEST15); label: 5' biotin on strand 1 as probe; blunt.

In data set [3] the target is T1, GST-MYB47. Description: competition EMSA; 20-fold excess over pTSA1 probe; 10 mM Tris-HCl pH 7.5, 50 mM KCl, 1 mM DTT, 2.5% glycerol, 5 mM MgCl2, 0.1% IGEPAL CA-630, 0.05 ug/uL poly(dI-dC); 500 ng protein, probe 5 uM; competitor 20 min then probe 30 min at room temperature. To be noted: protein: recombinant; tags: N-terminal GST (pDEST15); blunt.
Data set [4] has as its target T2, GST-MYB95. Described as above. To be noted: protein: recombinant; tags: N-terminal GST (pDEST15); blunt.

Data on three molecules can be found in article PMC12475115, “Arabidopsis MYB47 and MYB95 transcription factors regulate jasmonate-inducible ER-body formation”.

B1: pTSA1 probe (dsDNA)
DNA 1: GAATGAAATCCACGTTTAAGTTAGTTACAACGGTTT
DNA 2: AAACCGTTGTAACTAACTTAAACGTGGATTTCATTC
On to B1, for which the binding result in the data set with GST-MYB47 [1] and with GST-MYB95 [2] was “binds” throughout.

B2: pTSA1-m2 (box2 mutated) (dsDNA)
DNA 1: GAATGAAATCCACGTTTAACCCCTTTACAACGGTTT
DNA 2: AAACCGTTGTAAAGGGGTTAAACGTGGATTTCATTC
On to B2, for which the binding result in the data set with GST-MYB47 [3] and with GST-MYB95 [4] was “no binding” throughout.

B3: pTSA1-m1 (box1 mutated) (dsDNA)
DNA 1: GAATGAAATCTTTCCCCAAGTTAGTTACAACGGTTT
DNA 2: AAACCGTTGTAACTAACTTGGGGAAAGATTTCATTC
With B3, the binding result with GST-MYB47 [3] and with GST-MYB95 [4] was “binds” throughout.
